Molecular target: Synthetic Mtln protein (UniProt Q8NCU8)
Test: mass photometry

stoichiometry N: 6
Substance: Synthetic Mtln protein (from UniProt Q8NCU8 1-56) (natural protein)

Source: publication doi:10.1101/2024.07.10.601956
